Measured values as given in publication PMC11054257.

What was measured:
Assay in all cases: SDS-PAGE and Western blot of whole cells (oligomer bands that withstand SDS); 1 OD600 of induced cells in SDS sample buffer, 4~12% SDS-PAGE, PVDF, anti-Flag tag antibody; cells treated with proteinase K or not; positions of monomeric, dimeric and trimeric forms called putative
[1] = target: SadA^644 fused with Flag×3 and the UreB epitopes UreB158–172aa and UreB349–363aa (from pSadBA^644-FU2) (Salmonella typhimurium | Helicobacter pylori SS1) (UniProt P69996)
[2] = target: SadA^877 fused with Flag×3 and the UreB epitopes UreB158–172aa and UreB349–363aa (from pSadBA^877-FU2) (Salmonella typhimurium | Helicobacter pylori SS1) (UniProt P69996)
[3] = target: SadA^877 fused with N-terminal Flag×3-mScarlet (from pSadBA^877-FM) (Salmonella typhimurium)
[4] = target: SadA^1171 fused with Flag×3 and the UreB epitopes UreB158–172aa and UreB349–363aa (from pSadBA^1171-FU2) (Salmonella typhimurium | Helicobacter pylori SS1) (UniProt P69996)
[5] = target: SadA^1292 fused with Flag×3 and the UreB epitopes UreB158–172aa and UreB349–363aa (from pSadBA^1292-FU2) (Salmonella typhimurium | Helicobacter pylori SS1) (UniProt P69996)
[6] = target: SadA^1292 fused with N-terminal Flag×3-UreBm-mScarlet (from pSadBA^1292-FUM) (Salmonella typhimurium | Helicobacter pylori SS1) (UniProt P69996)
[7] = target: SadA^1292 fused with N-terminal Flag×3-mScarlet (from pSadBA^1292-FM) (Salmonella typhimurium)

SadA^644 fused with Flag×3 and the UreB epitopes UreB158–172aa and UreB349–363aa (from pSadBA^644-FU2) (from UniProt P69996)
stoichiometry N [1]: 3

SadA^877 fused with Flag×3 and the UreB epitopes UreB158–172aa and UreB349–363aa (from pSadBA^877-FU2) (from UniProt P69996)
stoichiometry N [2]: 3

SadA^877 fused with N-terminal Flag×3-mScarlet (from pSadBA^877-FM)
stoichiometry N [3]: 3

SadA^1171 fused with Flag×3 and the UreB epitopes UreB158–172aa and UreB349–363aa (from pSadBA^1171-FU2) (from UniProt P69996)
stoichiometry N [4]: 3

SadA^1292 fused with Flag×3 and the UreB epitopes UreB158–172aa and UreB349–363aa (from pSadBA^1292-FU2) (from UniProt P69996)
stoichiometry N [5]: 3

SadA^1292 fused with N-terminal Flag×3-UreBm-mScarlet (from pSadBA^1292-FUM) (from UniProt P69996 111-377)
stoichiometry N [6]: 3

SadA^1292 fused with N-terminal Flag×3-mScarlet (from pSadBA^1292-FM)
stoichiometry N [7]: 3
